Residue numbers refer to the chain shown, from its start. Names and notes keep the numbering of the source.
B1: 42.8.183 (Fc fusion)
chain: APEAAGGPSVFLFPPKPKDTLMISRTPEVTCVVVDVSHEDPEVKFNWYVDGVEVHNAKTKPREEQYNSTYRVVSVLTVLHQDWLNGKEYKCKVSNKALGAPIEKTISKAKGQPREPQVYTLPPSRDELTKNQVSLTCLVKGFYPSDIAVEWFYEGQKESNYKTTPPVLDSDGSFFLYSKLTVDKSRWQQGNLFACEVMHEALHNHYTYKLLSLSPGK
notes: bivalent; P329G+LALA
B2: 42.8.188 (Fc fusion)
chain: B1 chain with Q156S, S159T
notes: bivalent; P329G+LALA
B3: 42.8.79 (Fc fusion)
chain: B1 chain with Y153S, Q156S, S159N
notes: bivalent; P329G+LALA
B4: 42.8.122 (Fc fusion)
chain: B1 chain with E154G, G155A, S159T
notes: bivalent; P329G+LALA
B5: 42.8.134 (Fc fusion)
chain: B1 chain with E154G, G155D, S159T
notes: bivalent; P329G+LALA
B6: 42.8.202 (Fc fusion)
chain: B1 chain with G155A, Q156S, E158L, S159N
notes: bivalent; P329G+LALA
B7: 42.2.19 (Fc fusion)
chain: B1 chain with E154D, G155D, Q156S, E158L, S159T, Q189P, G190R, N191G, S212G, L213E
notes: P329G+LALA
B8: 42.8.195 (Fc fusion)
chain: B1 chain with G155A
notes: bivalent; P329G+LALA
B9: 42.8.186 (Fc fusion)
chain: B1 chain with E158L
notes: bivalent; P329G+LALA
B10: 42.2 (Fc fusion)
chain: B1 chain with Y153S, E154D, Q156S, S159T
notes: bivalent; P329G+LALA; also called 6.5.11.5.42.2
B11: 42.8.187 (Fc fusion)
chain: B1 chain with Q156S, S159N
notes: bivalent; P329G+LALA
B12: 42.8.189 (Fc fusion)
chain: B1 chain with Q156S
notes: bivalent; P329G+LALA
B13: 42.8.160 (Fc fusion)
chain: B1 chain with E154D, G155A, E158L, S159N
notes: bivalent; P329G+LALA
B14: 42.8.9 (Fc fusion)
chain: B1 chain with Y153S, E154G, Q156S
notes: bivalent; P329G+LALA
B15: 42.8.15 (Fc fusion)
chain: B1 chain with Y153S, E154G, G155A
notes: bivalent; P329G+LALA
B16: 42.8.194 (Fc fusion)
chain: B1 chain with G155A, S159T
notes: bivalent; P329G+LALA
B17: 42.8.93 (Fc fusion)
chain: B1 chain with Y153S, G155A, Q156S
notes: bivalent; P329G+LALA
B18: 42.2.1-20 (Fc fusion)
chain: B1 chain with Y153A, E154D, G155A, Q156S, E158Q, S159R
notes: P329G+LALA
B19: 42.8.80 (Fc fusion)
chain: B1 chain with Y153S, Q156S, S159T
notes: bivalent; P329G+LALA
B20: 42.8.185 (Fc fusion)
chain: B1 chain with E158L, S159T
notes: bivalent; P329G+LALA
B21: 42.8.129 (Fc fusion)
chain: B1 chain with E154G, G155A, Q156S
notes: bivalent; P329G+LALA
B22: 42.8.111 (Fc fusion)
chain: B1 chain with E154G
notes: bivalent; P329G+LALA
B23: 42.8.201 (Fc fusion)
chain: B1 chain with G155A, Q156S
notes: bivalent; P329G+LALA
B24: 42.8.197 (Fc fusion)
chain: B1 chain with G155A, E158L, S159T
notes: bivalent; P329G+LALA
B25: 42.8.207 (Fc fusion)
chain: B1 chain with G155D
notes: bivalent; P329G+LALA
B26: 42.8.164 (Fc fusion)
chain: B1 chain with E154D, G155A, Q156S, S159T
notes: bivalent; P329G+LALA
B27: 42.8.212 (Fc fusion)
chain: B1 chain with G155D, Q156S, S159T
notes: bivalent; P329G+LALA
B28: 42.8.142 (Fc fusion)
chain: B1 chain with E154G, G155D, Q156S, E158L, S159N
notes: bivalent; P329G+LALA
B29: 42.8.184 (Fc fusion)
chain: B1 chain with E158L, S159N
notes: bivalent; P329G+LALA
B30: 42.8.65 (Fc fusion)
chain: B1 chain with Y153S, E154D, G155D, E158L, S159T
notes: bivalent; P329G+LALA
B31: 42.8.10 (Fc fusion)
chain: B1 chain with Y153S, E154G, Q156S, E158L, S159N
notes: bivalent; P329G+LALA
B32: 42.8.161 (Fc fusion)
chain: B1 chain with E154D, G155A, E158L, S159T
notes: bivalent; P329G+LALA
B33: 42.8.213 (Fc fusion)
chain: B1 chain with G155D, Q156S
notes: bivalent; P329G+LALA
B34: 42.8.165 (Fc fusion)
chain: B1 chain with E154D, G155A, Q156S
notes: bivalent; P329G+LALA
B35: 42.8.180 (Fc fusion)
chain: B1 chain with E154D, G155D, Q156S, E158L
notes: bivalent; P329G+LALA
B36: 42.2.3-5 (Fc fusion)
chain: B1 chain with E154G, G155N, Q156G, S159T
notes: P329G+LALA
B37: 42.8.216 (Fc fusion)
chain: B1 chain with G155D, Q156S, E158L
notes: bivalent; P329G+LALA
B38: 42.8.176 (Fc fusion)
chain: B1 chain with E154D, G155D, Q156S, S159T
notes: bivalent; P329G+LALA
B39: 42.8.208 (Fc fusion)
chain: B1 chain with G155D, E158L, S159N
notes: bivalent; P329G+LALA
B40: 42.8.204 (Fc fusion)
chain: B1 chain with G155A, Q156S, E158L
notes: bivalent; P329G+LALA
B41: 42.8.199 (Fc fusion)
chain: B1 chain with G155A, Q156S, S159N
notes: bivalent; P329G+LALA
B42: 42.8.145 (Fc fusion)
chain: B1 chain with E154D, S159N
notes: bivalent; P329G+LALA
B43: 42.8.170 (Fc fusion)
chain: B1 chain with E154D, G155D, S159T
notes: bivalent; P329G+LALA
B44: 42.8.210 (Fc fusion)
chain: B1 chain with G155D, E158L
notes: bivalent; P329G+LALA
B45: 42.8.192 (Fc fusion)
chain: B1 chain with Q156S, E158L
notes: bivalent; P329G+LALA
B46: 42.8.140 (Fc fusion)
chain: B1 chain with E154G, G155D, Q156S, S159T
notes: bivalent; P329G+LALA
B47: 42.8.72 (Fc fusion)
chain: B1 chain with Y153S, E154D, G155D, Q156S, E158L
notes: bivalent; P329G+LALA
B48: 42.8.78 (Fc fusion)
chain: B1 chain with Y153S, E158L
notes: bivalent; P329G+LALA
B49: 42.8.147 (Fc fusion)
chain: B1 chain with E154D
notes: bivalent; P329G+LALA

Key:
[1] = molecular target: T1, circularly permuted human TfR apical domain (human); test: SPR, supernatant, anti-Fab capture
T1 construct: TfR residues 326-379 stand N-terminal to 194-296, loop 297-325 deleted; also called huTfR Apical Domain
T1 chain: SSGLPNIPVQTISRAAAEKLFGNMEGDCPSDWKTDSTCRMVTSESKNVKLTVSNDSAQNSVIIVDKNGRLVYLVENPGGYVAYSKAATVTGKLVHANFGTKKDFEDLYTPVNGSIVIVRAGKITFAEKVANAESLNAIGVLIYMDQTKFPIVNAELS
Description: (§1) Clones were expressed in HEK293 cells. Supernatants were captured for SPR by GE Healthcare anti-human Fab capture kit and the affinity to human and cyno TfR apical domain was measured (Table 30). The clones in Table 30 were bivalent and each TfR-binding Fc polypeptide also contained P329G and LALA mutations.

[2] = molecular target: T2, circularly permuted cyno TfR apical domain (cynomolgus monkey); test: SPR, supernatant, anti-Fab capture
T2 construct: same design as the human construct; also called cyTfR Apical Domain; cynomolgus TfR apical domain
T2 chain: T1 chain with R39K, S45N, N47S, R69G, Y108D, T109S, N153K, E155D
Description: as §1

Row | Binder | Kd [1] [µM] | Kd [2] [µM]
1 | B1 | 2.33 | 15.1
2 | B2 | 1.03 | 12.5
3 | B3 | 3.07 | 28.6
4 | B4 | 3.91 | 9.84
5 | B5 | 1.24 | 13.2
6 | B6 | 0.505 | 6.27
7 | B7 | 0.08 | 1
8 | B8 | 1.23 | 13.3
9 | B9 | 2.05 | 22.2
10 | B10 | 1 | 7.5
11 | B11 | 1.6 | 13.4
12 | B12 | 1.1 | 13.5
13 | B13 | 1.05 | 11.6
14 | B14 | 1.85 | 14.3
15 | B15 | 5.96 | 27
16 | B16 | 1.23 | 11.8
17 | B17 | 5 | 17.6
18 | B18 | 0.44 | 7
19 | B19 | 2.38 | 13.6
20 | B20 | 1.85 | 13.3
21 | B21 | 0.858 | 3.14
22 | B22 | 1.88 | 19.1
23 | B23 | 0.647 | 4.91
24 | B24 | 0.755 | 11.4
25 | B25 | 1.2 | 13.8

Row | Binder | Kd [1] [µM] | Kd [2] [µM]
26 | B26 | 0.832 | 7.45
27 | B27 | 0.62 | 9.37
28 | B28 | 0.665 | 4.63
29 | B29 | 1.68 | 17
30 | B30 | 3.94 | 10.3
31 | B31 | 3.76 | 11.1
32 | B32 | 1.14 | 10.5
33 | B33 | 0.872 | 9.79
34 | B34 | 1.03 | 4.46
35 | B35 | 0.705 | 7.91
36 | B36 | 0.26 | 1.8
37 | B37 | 0.421 | 5.85
38 | B38 | 0.613 | 9.78
39 | B39 | 0.446 | 7.41
40 | B40 | 0.436 | 4.63
41 | B41 | 0.869 | 8.05
42 | B42 | 1.01 | 11.4
43 | B43 | 1.15 | 11.9
44 | B44 | 0.596 | 7.88
45 | B45 | 0.761 | 11.3
46 | B46 | 0.664 | 5.23
47 | B47 | 2.71 | 13.4
48 | B48 | 0.972 | 6.74
49 | B49 | 3.51 | 8.03

From US20250145729A1 (DENALI THERAPEUTICS, published 2025)
